From publication PMC4095729

Target: biotinylated DAE10 peptide (Aβ1-10 conjugated to biotin at the carboxy-terminus)
Experiment: SPR; BIAcore; biotinylated DAE10 peptide (Aβ1-10) immobilised on streptavidin coated chips at low density (4 to 7 RU); whole antibodies injected in triplicate at 100 nM, 30 μl/minute; apparent rate constants, bivalent model, KD corrected for active concentration of antibody

Murine 3D6 (whole antibody, IgG2b)
Kd: 1.2 nM
koff: 0.000412 s⁻¹
kon: 361000 M⁻¹ s⁻¹

Recombinant chimeric 3D6 (IgG1) (antibody)
Kd: 1.8 nM
koff: 0.000589 s⁻¹
kon: 343000 M⁻¹ s⁻¹
